Changes are numbered by the printed parent chain.

Consider 29 molecules from patent US20160376333A1 (University of Washington, published 2016).

To fix the notation:
T1: Epstein-Barr virus BHRF1 a.a. 1-161 with C-terminal avi-6his tag (Epstein-Barr virus)
T1 construct: also called EBV BHRF1; BHRF1-biotin
T1 chain: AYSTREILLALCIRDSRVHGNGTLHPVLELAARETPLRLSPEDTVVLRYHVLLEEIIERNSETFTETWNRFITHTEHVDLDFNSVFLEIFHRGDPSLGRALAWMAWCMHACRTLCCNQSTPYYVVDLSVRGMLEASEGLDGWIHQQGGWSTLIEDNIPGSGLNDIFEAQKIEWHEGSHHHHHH

B1: Index 27 (designed binder)
chain: GLDGDYLMDEAFKFIERERERAEEEAKKMYELAEKGKYYEERKTKATKFWIALALEMIGDFFNFEMWFRKYAEKNRENNQRREDLLRRWELLLRFQAWDAAERARELGKRLELWFKKG
B2: Index 29 (designed binder)
chain: GEVAKDLAKLAIDLAKKLMLLFWWFFELFKLFAKFTDEWQEWKARGTAFWIALSLAAIGDFFNARRRAELQAREGKQKGLTTEEKEKRWREHLKEAWEKLEKISRLAFLFAQEAENQG
B3: Index 20 (designed binder)
chain: GLRFEEIERYAREEADKIADEAKERFEKLKKLFLWLTDKDEERLKMTHLWIAGALEAIGDLFNAAELAKELAEKAARLTSQDANRRDEARKKIDEAEKEAADKVSKAAKEAAKFFEQG
B4: Index 25 (designed binder)
chain: GANHEDAIWEALYKAEDAFKDHLKEIEIYREFSEKFWPLDDYKDNLRAHWIAAALAAIGDWFNVFFEAELKFREAKRKNLRSEDDIKKYRWRLFKALDIAIDLADRVGDEAEKAERLG
B5: Index 31 (designed binder)
chain: GDQADKIKDKIKDEAKKKADEFKKRLEQFREYLEKVYSDDLKEIYLTIFWIALALMLIGDAFNEKMLLEWEFKERKKRNLRHEEELKEEKKKREEAEKALEWASKYASQVGKEAAEEG
B6: Index 35 (designed binder)
chain: GGDGVKELEELEKRKDEKKNKAEDRIKKFKDEAKYADDRTEDKEKLAHRWIALALDIIGDAFNLKEEARRRFLRHKFRGELDDSKKEYAEKEMKRFEDDVEKDAEELAQKAKEAFKEG
B7: Index 23 (designed binder)
chain: GEDEEKDHKDTEEKARRLHERARDMLDKVKDLEEKTDAQDNERRRATHDWIAAALMMIGDAFNSFEDTKRRAEKKRELNLISEDEAKEKIKRAEELRKRIYELLKKAAEFAREAEKGG
B8: Index 19 (designed binder)
chain: GERVEEILRKMLDDALLHFLEHRDDARERKERGERHQPRDEEREELSHDWIAAALMAIGDIFNAKLRAEERAEEFLKWGLRSQDDKKELEERAKEAAKIALKWAEEAGKEADEAEKAG
B9: Index 21 (designed binder)
chain: GFDWKKVLDKAKDLAENDVREAKQKLEEFYKKAMKLDLTQEMRRKLMLEWIAAMLMAIGDIFNAIEQGKQEADKLKKLGKVLSQLLDELKRRLEELKEEAALKAHDFGREFELKLLFG
notes: also called computational precursor for BbpD04
B10: Index 37 (designed binder)
chain: GDFWLKAIEIAGGRMLERARESWYRALYFILMVKLFYPSDDLRRIFTLRWIAESLKLIGDAFNLFELARELLELYYKYGWITLEKALKALWILLKLEEIFSKASKDLGERLAEEIERG
B11: Index 34 (designed binder)
chain: GKFKKLFENYAELFARWVADKGKKLAEELREKAEKGLKLQKLWLIFTMIWIAIMLMSIGDAFNLALLAELWVQAAKNYGWLRDNEADEAEDRVRKFADEASRRALEKGLEALRKILEG
B12: Index 18 (designed binder)
chain: GGTEDDIKDLAEKWRDDMKKEFLREFLRIKEWTKYWGWREEGRKLATLRWIALSLMHIGDLFNLKELAKKLVDDIKKKGLEHEERAERAREEAEKIMEKAAKLDSILSKLAAKLIEEG
B13: Index 30 (designed binder)
chain: GSRWFDAEDKMRERKDRAILQLLFMLWIIFYILWYGDDTEEAKRKAMAAWIALALIGIGDIFNAEAEFLEELERAIKQGQVSDQLKEELLKRMEDDKRDLEKRLYEFLLKALLQWMQG
B14: Index 22 (designed binder)
chain: GSSAEDLRDWARDQHEKDVDKMEKRLRLLYFELARKDFNEEELKKATEKWIAAALDAIGDHFNAALKARLLARDAAKKGLIDRNKLDEVEKMAELFEELGERKAALKGREFLRWVLLG
B15: Index 28 (designed binder)
chain: GKEGSRLREEAERRGLRKLLEVILRWLEDALRMIYGQDKDEDRKEATHRWIADALELIGDIFNALLEAFIKMELARRFGLLEEQRARDEKKKALERAEEFSKRARELGEKLTQILEGG
B16: Index 26 (designed binder)
chain: GRFAERLFKKMLIKQLLNTQYFRDQLKQLKDRSKKYDASDDDKDEATHRWIAFALMAIGDVFNDKLEIELLIELFAKYGLVHEEERKEFRKRLDEFEKIFRKWLDELKKLALEALNQG
B17: Index 32 (designed binder)
chain: GGDENKLKDYVKDEIERGLNEIEDLARKIEQLARRFFPKDEERMKFTMWWIAAALMAIGDIFNAKEYARERAEEIRRKGLRREEEARRIEKFIEEEAEKAAKKAAKLGDHLAEELFRG
B18: Index 33 (designed binder)
chain: GKQWQEAFEEARRRIEEKAREFEDRAKKEALLHLFFIPHDKEIADNSKKWIAWALMLIGDIFNLEEEAAERARRHVKRGEISEDDAKQIRKRLQEQAKRAAWWMRYWGEESAKFAFIG
B19: Index 24 (designed binder)
chain: GELAREAAEEAHRRVEEDARDAKNRLDEFKKRYKITQLSKSDISRATALWIAAALDAIGDIFNAKQKAEKILGLWYKLGLVQLQEFLEKEDKARYHWQAALERAFEAGRDMLEVAAYG
B20: Index 36 (designed binder)
chain: GYTKEWIRDRAKEELDRFADEAKDKADKIRDDFEKRDDKNQIAAELTKKWIAAELEAIGDAFNRAEEAKERLKKLLKLGLTRKEEAEEAAEKLEKLEKEASEKLSKIAHEVSKHDDQG
B21: X-CDP03 (designed binder)
chain: ADPKKVLDKAKDQAENRVRELKQKLEELYKEARKLDLTQEMRRELRNRAIAAILQAIGDLLNAIQQAKDEADKLKKAGLVNSQQLDELKRRLEELQNEAAEKAADYGEEFWLKLEY
B22: X-CDP04 (designed binder)
chain: ADPKKVLDKAKDQAENRVRELKQKLEELYKEARKLDLTQEDRKRLLLQYIAAMLAAIGDLENAIRWAKREADKLKKAGLVNSQQLDELKRRLEELAKEAAEKAADYGEEFNLKLEY
B23: X-CDP01 (designed binder)
chain: ADPKKVLDKAKDQAENRVRELKQKLEELYKEARKLDLTQEMRRELQARYIAAMLAAAGDIMEAIQQAKNEADKLKKAGLVNSQQLDELKRRLEELAKEAARKAEDYGREFQLKLEY
B24: X-CDP11 (designed binder)
chain: ADPKKVLDKAKDQAENRVRELKQKLEELYKEARKLDLTQEMRRELRDRYIAAMLAAIGDLFNAIQWAKQEADKLKKAGLVNSQQLDELKRRLEELAEEAARKAEDYGEEFKLKLEY
B25: X-CDP02 (designed binder)
chain: B23 chain with R43K, Q46V, M61V, E62Q, Q66D, E104T
B26: X-CDP10 (designed binder)
chain: B24 chain with D47E, I57A, F61W, N62Y, Q65T, W66Q, Q69R, A96L, K111R
B27: X-CDP08 (designed binder)
chain: ADPKKVLDKAKDRAENRVRKLKKELEKLYKEARKLDLTQEQRDRIINAAIAAMIAAFGDIFHAIMEAKEEARKLKKAGLVNSQQLDELKRRLDELDEEAAQRAEKLGKEFRLKFEY
B28: X-CDP06 (designed binder)
chain: B27 chain with K20E, E24K, D43N, R44K, I50M, M65Q, R72K, R111N
B29: X-CDP05 (designed binder)
chain: ADPKKVLDKAKDQAENRVRELKQKLEELYKEARKLDLTQEMRRQLRDQYIAAMLAAIGDLLNAIMQAKREADKLKKAGLVNSQQLDELKRRLEELEEEAAQKAADYGQEFLLKLEY

The target of the first assay is T1, Epstein-Barr virus BHRF1 a.a. 1-161 …. Put plainly: yeast display library, FACS sort at 100 nM BHRF1, deep sequencing.
In the case of B1, the Log2 enrichment ratio was -0.72 log2.

For B2, the Log2 enrichment ratio was -1.66 log2.

Turning to B3, the Log2 enrichment ratio is -3.87 log2.

Regarding B4, the Log2 enrichment ratio was -2.9 log2.

For B5, the Log2 enrichment ratio is -3.55 log2.

With B6, the Log2 enrichment ratio was -3.51 log2.

Take B7: the Log2 enrichment ratio is -1.72 log2.

With B8, the Log2 enrichment ratio was -2.97 log2.

As to B9, the Log2 enrichment ratio was -3.38 log2.

Turning to B10, the Log2 enrichment ratio was -3.13 log2.

In the case of B11, the Log2 enrichment ratio was -3.41 log2.

As for B12, the Log2 enrichment ratio is -1.36 log2.

For B13, the Log2 enrichment ratio was -2.58 log2.

Consider B14, for which the Log2 enrichment ratio is -3.03 log2.

As to B15, the Log2 enrichment ratio is -4.52 log2.

Turning to B16, the Log2 enrichment ratio is -2.74 log2.

For the molecule B17, the Log2 enrichment ratio is -2 log2.

For the molecule B18, the Log2 enrichment ratio is -4.18 log2.

As for B19, the Log2 enrichment ratio is -3.02 log2.

Consider B20, for which the Log2 enrichment ratio is -3.6 log2.

The target in another assay is T2, human Bcl-XL a.a. 1-205 with C-terminal avi-6his tag (human, UniProt Q07817 2-206).
T2 construct: also called BCL2L1
Description: initial BLI screening (column 'Binds target?').
With B21, the binding result is “binds”.

For B22, the binding result was “binds”.

For the molecule B23, the binding result is recorded as “binds”.

With B24, the binding result is “binds”.

On to B25, for which the binding result was “binds”.

Take B26: the binding result is “binds”.

Regarding B27, the binding result is “binds”.

As for B28, the binding result is “binds”.

On to B29, for which the binding result was “binds”.

Another assay deals with T1, Epstein-Barr virus BHRF1 a.a. 1-161 …. Put plainly: yeast display library, FACS sort at 400 nM BHRF1, deep sequencing.
For the molecule B1, the Log2 enrichment ratio was 0.86 log2.

With B2, the Log2 enrichment ratio was -2.43 log2.

With B3, the Log2 enrichment ratio was -3.65 log2.

Regarding B4, the Log2 enrichment ratio was -1.53 log2.

Turning to B5, the Log2 enrichment ratio is -4.21 log2.

On to B6, for which the Log2 enrichment ratio was -3.29 log2.

Take B7: the Log2 enrichment ratio was -0.17 log2.

Consider B8, for which the Log2 enrichment ratio is -1.98 log2.

Consider B9, for which the Log2 enrichment ratio was -2.81 log2.

As for B10, the Log2 enrichment ratio was -2.14 log2.

Take B11: the Log2 enrichment ratio is -2.21 log2.

Take B12: the Log2 enrichment ratio is 0.98 log2.

As for B13, the Log2 enrichment ratio was -4.1 log2.

On to B14, for which the Log2 enrichment ratio was -2.4 log2.

For B15, the Log2 enrichment ratio is -2.85 log2.

Regarding B16, the Log2 enrichment ratio is -2 log2.

As for B17, the Log2 enrichment ratio is -2.56 log2.

Consider B18, for which the Log2 enrichment ratio is -3.85 log2.

For B19, the Log2 enrichment ratio is -2.95 log2.

In the case of B20, the Log2 enrichment ratio was -3.65 log2.
